Test results: publication PMC2921712

What was measured:
[1] = biological target: Oregon Green 488-labeled GMPCPP microtubules; experiment: single-molecule TIRF microscopy
microtubules = experiment: co-sedimentation
[2] = biological target: Xenopus CENP-E^1-473 tagged with TagRFP-T (CENP-E^1-473-RFP) (Xenopus laevis); experiment: single-molecule TIRF microscopy with photobleaching steps

Chain of Oregon Green 488-labeled GMPCPP microtubules (P02550 whole entry, chain 1 of 2): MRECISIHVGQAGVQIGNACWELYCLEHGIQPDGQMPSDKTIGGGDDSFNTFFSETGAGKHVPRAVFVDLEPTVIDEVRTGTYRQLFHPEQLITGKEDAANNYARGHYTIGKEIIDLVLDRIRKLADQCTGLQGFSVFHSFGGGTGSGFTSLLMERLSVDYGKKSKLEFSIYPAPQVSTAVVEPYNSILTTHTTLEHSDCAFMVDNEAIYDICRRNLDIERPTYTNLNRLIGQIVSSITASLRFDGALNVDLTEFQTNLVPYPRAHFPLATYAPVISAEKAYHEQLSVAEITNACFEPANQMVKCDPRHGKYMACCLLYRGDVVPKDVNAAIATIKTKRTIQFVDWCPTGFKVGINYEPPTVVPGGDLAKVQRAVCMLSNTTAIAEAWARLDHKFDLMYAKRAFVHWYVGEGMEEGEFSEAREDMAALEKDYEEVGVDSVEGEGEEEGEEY
Chain of Oregon Green 488-labeled GMPCPP microtubules (P02554 whole entry, chain 2 of 2, further chain): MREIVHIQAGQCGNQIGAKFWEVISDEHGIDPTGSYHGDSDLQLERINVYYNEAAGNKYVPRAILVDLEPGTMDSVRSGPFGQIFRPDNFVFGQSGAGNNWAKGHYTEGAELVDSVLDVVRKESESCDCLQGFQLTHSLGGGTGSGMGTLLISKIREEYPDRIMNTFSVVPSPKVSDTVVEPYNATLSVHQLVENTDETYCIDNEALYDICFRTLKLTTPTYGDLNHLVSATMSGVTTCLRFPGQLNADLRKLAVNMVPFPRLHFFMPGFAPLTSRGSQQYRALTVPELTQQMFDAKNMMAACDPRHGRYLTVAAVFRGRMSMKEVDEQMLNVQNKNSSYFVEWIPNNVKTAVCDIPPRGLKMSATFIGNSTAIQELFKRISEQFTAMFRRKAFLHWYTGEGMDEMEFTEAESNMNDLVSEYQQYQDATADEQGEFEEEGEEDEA
Chain of microtubules (P02550 whole entry, chain 1 of 2, the tested form may be a part): as the sequence (P02550 whole entry, chain 1 of 2) above
Chain of microtubules (P02554 whole entry, chain 2 of 2, further chain, the tested form may be a part): as the sequence (P02554 whole entry, chain 2 of 2, further chain) above

Substance	mean duration of binding (t) [1] [s]	Kd (microtubules) [µM]	time bound at the microtubule end [1] [s]	stoichiometry N [2]
T424A Xenopus CENP-E^1-473 incubated with Aurora A (domain or fragment)		3.4		
Xenopus CENP-E^1-473 tagged with TagRFP-T (CENP-E^1-473-RFP) (domain or fragment)	17		5.8	2
Xenopus CENP-E^1-473 phosphorylated by Aurora A (domain or fragment)		3		

More lines, now with the values ahead:

mean duration of binding (t) [1] [s]	Kd (microtubules) [µM]	time bound at the microtubule end [1] [s]	stoichiometry N [2]	Substance
12				Xenopus CENP-E^1-473-RFP phosphorylated by Aurora A (domain or fragment)
	2			Xenopus CENP-E motor fragment CENP-E^1-473 (domain or fragment)
